From patent publication US20100261660A1

Target: hB7-1-FLAG (human) (UniProt P33681)
Assay: flow cytometry, seven transient transfections of 293 cells, mean±SEM; used by the filing as a measure of expression

hB7-1-FLAG (human), sequence (P33681 other isoform, or with tags, fused parts or gaps): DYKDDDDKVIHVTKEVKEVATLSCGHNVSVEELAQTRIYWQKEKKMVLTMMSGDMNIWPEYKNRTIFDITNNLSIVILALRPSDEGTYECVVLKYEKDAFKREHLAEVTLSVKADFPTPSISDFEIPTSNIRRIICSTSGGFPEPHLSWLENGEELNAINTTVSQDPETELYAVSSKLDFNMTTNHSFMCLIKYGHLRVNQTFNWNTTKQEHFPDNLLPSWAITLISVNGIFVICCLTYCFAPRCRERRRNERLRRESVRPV

**Q.** For FLAG-specific mAb M2 (antibody), which mean fluorescence intensity (MFI) is on record?
**A.** The mean fluorescence intensity (MFI) was 55.
